Measured values published in patent publication US20070286858A1 (Pfizer, published 2007).
Where a chain is given by its changes, count along the chain named. Values belong to the binder of their own block, whether it stands above or below them.

How the values were obtained:
[1] = target: T1, human RAGE, full length (human, UniProt Q15109 23-404); assay: FACS, 293 cells infected with human RAGE adenovirus
T1 construct: Expressed on 293 or CHO cells, or endogenous in human lung sections; also called hRAGE; cell-surface hRAGE
Procedure: Human 293 cells were infected with the human and murine RAGE adenovirus. Infected cells were suspended in PBS containing 1% BSA at a density of 4×10⁴ cells/ml. Cells were incubated with 100 ul of sample (diluted immune sera, hybridoma supernatants or purified antibodies) for 30 min at 4° C. After washing, cells were incubated with PE-labeled goat, anti-mouse, IgG, F(ab′)₂ (DAKO Corporation GlostrupDenmark) for 30 min at 4° C. in the dark. Cell-associated fluorescence signals were measured by a FACScan flow cytofluorometer (Becton Dickinson) using 5000 cells per treatment. Propidium iodide was used to identify dead cells, which were excluded from the analysis.

[2] = target: T2, human RAGE-Fc fusion protein (human, UniProt Q15109 23-344); assay: ELISA, coated hRAGE-Fc
T2 construct: also called hRAGE-Fc; huRAGE-Fc; not shown: Fc domain of human IgG
Procedure: Antibodies were purified from hybridoma supernatants using standard procedures. Purified antibodies were evaluated for binding to soluble forms of RAGE with the use of ELISA. […] After washing and blocking with PBS containing 1% BSA and 0.05% Tween-20, 100 ul of sample (samples were in several forms: diluted immune serum, hybridoma supernatants, or purified antibodies, as indicated) was added and incubated for 1 hour at room temperature. The plates were washed with PBS, pH 7.2 and bound anti-RAGE antibodies were detected with the use of peroxidase-conjugated goat, anti-mouse IgG (H+L) (IgG) (Pierce, Rockford, Ill.) followed by incubation with the substrate TMB (BioFX Laboratories Owings Mills, Md. Laboratories). Absorbance values were determined at 450 nm in a spectrophotometer. The concentrations of monoclonal antibodies were determined with the use of peroxidase-labeled goat, anti-mouse IgG (Fcγ) (Pierce Rockford, Ill.) and a standard curve was generated by a purified, isotype-matched mouse IgG.

[3] = target: T2, human RAGE-Fc fusion protein; assay: direct binding ELISA, receptor coated at 1 µg/ml, antibody at 20 µg/ml
Procedure: (§1) These receptors were chosen because they are cell-surface expressed, like RAGE, and their interaction with ligand is similarly dependent on charge. […] ELISA plates were coated overnight with 1 μg/ml of the listed receptor proteins.

[4] = target: T3, mLox1-Fc (mouse, UniProt Q9EQ09 60-363); assay: as above
T3 construct: also called mLoxl-Fc; not shown: Fc part not described
Procedure: as §1

[5] = target: T4, rhB7-H1-Fc (human, UniProt Q9NZQ7 19-239); assay: as above
T4 construct: not shown: Fc part not described
Procedure: as §1

[6] = target: T5, rhVCAM-1 (human, UniProt P19320 25-698); assay: as above
T5 sequence (looked up): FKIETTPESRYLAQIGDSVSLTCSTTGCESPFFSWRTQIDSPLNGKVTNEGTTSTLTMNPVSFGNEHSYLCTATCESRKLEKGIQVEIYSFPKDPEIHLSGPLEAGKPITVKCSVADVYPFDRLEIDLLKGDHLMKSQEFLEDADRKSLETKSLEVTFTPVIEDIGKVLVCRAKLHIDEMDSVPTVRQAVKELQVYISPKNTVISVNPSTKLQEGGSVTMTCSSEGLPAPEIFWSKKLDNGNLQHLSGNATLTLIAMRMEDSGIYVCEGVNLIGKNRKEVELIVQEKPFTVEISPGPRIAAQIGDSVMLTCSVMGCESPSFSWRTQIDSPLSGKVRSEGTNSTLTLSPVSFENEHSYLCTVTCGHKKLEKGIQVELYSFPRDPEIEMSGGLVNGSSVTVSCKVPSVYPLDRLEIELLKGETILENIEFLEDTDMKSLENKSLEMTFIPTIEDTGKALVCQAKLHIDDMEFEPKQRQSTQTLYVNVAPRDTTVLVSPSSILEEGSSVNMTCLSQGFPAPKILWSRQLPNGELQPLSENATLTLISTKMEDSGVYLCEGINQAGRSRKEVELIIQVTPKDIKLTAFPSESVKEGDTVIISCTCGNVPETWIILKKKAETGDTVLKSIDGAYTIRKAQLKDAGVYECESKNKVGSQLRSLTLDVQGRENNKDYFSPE
Procedure: as §1

[7] = target: rhTLR4 (C-terminal His tag) (human, UniProt O00206 24-631); assay: as above
Procedure: as §1

[8] = target: hLox1-Fc (human, UniProt P78380 61-273); assay: as above
Procedure: as §1

[9] = target: rhNCAM-1 (human, UniProt P13591-3 20-603, limits assumed); assay: as above
Procedure: as §1

[10] = target: T6, rhICAM-1-Fc (human, UniProt P05362 28-480); assay: as above
T6 construct: also called rhlCAM-1-Fc; not shown: Fc part not described
Procedure: as §1

T4 sequence (Q9NZQ7 19-239): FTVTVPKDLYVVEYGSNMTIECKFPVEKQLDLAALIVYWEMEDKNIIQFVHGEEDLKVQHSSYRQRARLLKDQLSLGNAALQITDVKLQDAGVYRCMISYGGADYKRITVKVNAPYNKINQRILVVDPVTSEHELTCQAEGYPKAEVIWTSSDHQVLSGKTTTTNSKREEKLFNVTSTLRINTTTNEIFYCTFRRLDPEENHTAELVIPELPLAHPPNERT
T6 sequence (P05362 28-480): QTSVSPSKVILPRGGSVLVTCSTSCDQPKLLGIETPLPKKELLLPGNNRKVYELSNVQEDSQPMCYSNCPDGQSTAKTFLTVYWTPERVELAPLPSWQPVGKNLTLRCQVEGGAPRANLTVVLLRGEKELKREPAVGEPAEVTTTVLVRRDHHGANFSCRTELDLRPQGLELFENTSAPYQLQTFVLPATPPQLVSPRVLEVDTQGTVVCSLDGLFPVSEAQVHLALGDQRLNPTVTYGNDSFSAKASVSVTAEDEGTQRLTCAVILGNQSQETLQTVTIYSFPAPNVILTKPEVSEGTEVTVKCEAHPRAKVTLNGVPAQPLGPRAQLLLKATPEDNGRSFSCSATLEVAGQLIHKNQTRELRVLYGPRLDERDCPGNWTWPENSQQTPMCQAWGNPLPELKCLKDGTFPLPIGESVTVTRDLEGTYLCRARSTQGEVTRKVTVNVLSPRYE
T3 sequence (Q9EQ09 60-363): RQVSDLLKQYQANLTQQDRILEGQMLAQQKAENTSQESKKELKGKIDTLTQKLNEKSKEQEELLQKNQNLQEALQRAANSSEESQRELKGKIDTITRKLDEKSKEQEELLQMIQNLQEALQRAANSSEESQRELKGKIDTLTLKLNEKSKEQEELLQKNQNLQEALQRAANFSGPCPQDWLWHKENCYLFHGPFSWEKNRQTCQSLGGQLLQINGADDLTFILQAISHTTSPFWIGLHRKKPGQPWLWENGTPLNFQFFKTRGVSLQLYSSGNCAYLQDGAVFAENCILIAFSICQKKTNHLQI
rhTLR4 (C-terminal His tag), sequence (O00206 24-631 limits assumed): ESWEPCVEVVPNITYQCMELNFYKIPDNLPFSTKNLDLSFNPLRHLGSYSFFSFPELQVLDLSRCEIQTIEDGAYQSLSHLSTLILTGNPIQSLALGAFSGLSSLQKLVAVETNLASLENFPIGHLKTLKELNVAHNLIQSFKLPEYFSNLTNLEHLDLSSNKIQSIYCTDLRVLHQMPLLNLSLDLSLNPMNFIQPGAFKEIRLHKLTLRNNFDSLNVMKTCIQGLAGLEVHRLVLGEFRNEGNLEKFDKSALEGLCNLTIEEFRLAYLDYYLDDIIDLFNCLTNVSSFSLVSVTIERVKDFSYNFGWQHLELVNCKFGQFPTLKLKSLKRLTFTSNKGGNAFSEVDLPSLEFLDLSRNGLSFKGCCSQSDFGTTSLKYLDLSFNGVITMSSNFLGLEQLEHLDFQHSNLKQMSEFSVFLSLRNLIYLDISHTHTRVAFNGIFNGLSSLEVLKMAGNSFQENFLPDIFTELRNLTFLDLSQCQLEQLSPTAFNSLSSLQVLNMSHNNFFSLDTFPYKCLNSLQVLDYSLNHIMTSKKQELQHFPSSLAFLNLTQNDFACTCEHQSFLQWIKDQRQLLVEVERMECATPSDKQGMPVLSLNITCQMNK
rhNCAM-1, sequence (P13591 other isoform, or with tags, fused parts or gaps limits assumed): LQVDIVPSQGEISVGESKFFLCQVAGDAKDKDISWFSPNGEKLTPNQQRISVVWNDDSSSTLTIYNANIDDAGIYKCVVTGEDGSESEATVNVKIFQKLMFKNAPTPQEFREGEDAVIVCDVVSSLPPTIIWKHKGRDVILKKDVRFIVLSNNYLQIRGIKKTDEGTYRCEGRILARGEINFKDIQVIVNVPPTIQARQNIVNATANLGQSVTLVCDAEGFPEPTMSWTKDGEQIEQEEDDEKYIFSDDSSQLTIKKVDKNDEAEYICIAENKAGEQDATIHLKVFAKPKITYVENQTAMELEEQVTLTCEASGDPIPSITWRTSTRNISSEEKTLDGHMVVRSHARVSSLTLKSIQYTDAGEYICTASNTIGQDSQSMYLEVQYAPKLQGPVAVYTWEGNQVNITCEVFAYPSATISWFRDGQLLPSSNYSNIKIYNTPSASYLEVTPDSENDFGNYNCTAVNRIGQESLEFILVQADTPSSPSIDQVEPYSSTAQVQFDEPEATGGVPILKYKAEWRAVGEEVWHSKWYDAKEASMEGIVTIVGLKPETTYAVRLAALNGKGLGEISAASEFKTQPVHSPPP

binding result [1]: binds
binding result [2]: binds
B1: XT-H7 (antibody, mouse IgG1, V domains shown)
VH: QVQLKESGPGLVAPSQSLSITCTVSGFSLTNYGVHWVRQPPGKGLEWLGVMWAGGSTTYNSALMSRLSISKDNSKSQVFLKMNSLQTDDTAMYYCARYGNYAMDYWGQGTSVTVSS
VL: DIQMTQSPSSLSASLGGKVTITCKASQDIYKYIAWYQHKPGKGPRLLIHYTSTLQPGIPSRFSGSGSGRDYSFSISNLEPEDIATYYCLRYDNLYTFGGGTKLEIK
notes: also called 1hRAGEP3/66

binding result [1]: binds
binding result [2]: binds
B2: XT-H3 (antibody, mouse IgG1, V domains shown)
VH: QVQLQQPGSELVRPGASVKLSCKTSGYTFTNYWMHWVKQRHGQGLEWIGNLYPGSGRTNYDEKFKSKVTLTEDTSSSTAYMHLSNLTSEDSAVYYCTSLRRGFVYWGQGTLVTVSA
VL: NIVMTQSPEYMSMSFGERVTLTCKASENVGSYVSWYQQKSEQSPKLLIYGASNRYTGVPDRFTGSGSATDFTLTITSVQAEDLADYHCGQTYTYPYTFGGGTKLEIK
notes: also called 1hRAGEP3/18

OD450 [3]: 3.81
OD450 [4]: 0.016
OD450 [5]: 0.01
OD450 [6]: 0.01
OD450 [7]: 0.001
OD450 [8]: 0.007
OD450 [9]: 0.004
OD450 [10]: 0.007
B3: XT-M4-hVH-V2.0-2m/hVL-V2.10 (antibody, V domains shown)
VH: EVQLVESGGGLVQPGGSLRLSCAASGFTFNNYWMTWVRQAPGKGLEWVASIDNSGDNTYYPDSVKDRFTISRDNAKNSLYLQMNSLRAEDTAVYYCARGGDITTGFDYWGQGTLVTVSS
VL: DIQMTQSPSSLSASVGDRVTITCRASQDVGIYVNWFQQKPGKAPKRLIYRATNLADGVPSRFSGSGSGTDFTLTISSLQPEDFATYYCLEFDEHPLTFGGGTKVEIK
notes: '2m' is not explained; also called XT-M4-hVH-2.0-2m/hVL-V2.10

OD450 [3]: 3.83
OD450 [4]: 0.01
OD450 [5]: 0.009
OD450 [6]: 0.012
OD450 [7]: 0.003
OD450 [8]: 0.022
OD450 [9]: 0.011
OD450 [10]: 0.004
B4: XT-M4-hVH-V2.0-2m/hVL-V2.11 (antibody, V domains shown)
VH: B3 VH
VL: B3 VL with K45R, G66R
notes: '2m' is not explained
